Assay results: patent publication US20250130242A1
Non-standard residues stand in square brackets, D forms with d. No end group written: not given here. pGlu = O=C1CC[C@@H](C(=O)O)N1

B1: peptide C1A2-02 (J…) (peptide)
peptide: [pGlu]SLQEETVRK
B2: peptide C1A2-03 (…) (peptide)
peptide: QSLQEETVRK

What was measured:
[1] = molecular target: S24201 antibody; assay: competitive ELISA; coated C1A2-01-BSA (printed C1A1-02-BSA), S24201 125 ng/mL, competitive peptide 1000 ng/ml
[2] = molecular target: S24201 antibody; assay: competitive ELISA; coated C1A2-01-BSA (printed C1A1-02-BSA), S24201 125 ng/mL, competitive peptide 200 ng/ml
[3] = molecular target: S24201 antibody; assay: competitive ELISA; coated C1A2-01-BSA (printed C1A1-02-BSA), S24201 125 ng/mL, competitive peptide 5000 ng/ml
[4] = molecular target: S24201 antibody; assay: competitive ELISA; coated C1A2-01-BSA (printed C1A1-02-BSA), S24201 125 ng/mL, competitive peptide 1.6 ng/ml
[5] = molecular target: S24201 antibody; assay: competitive ELISA; coated C1A2-01-BSA (printed C1A1-02-BSA), S24201 125 ng/mL, competitive peptide 40 ng/ml
[6] = molecular target: S24201 antibody; assay: competitive ELISA; coated C1A2-01-BSA (printed C1A1-02-BSA), S24201 125 ng/mL, competitive peptide 0.32 ng/ml
[7] = molecular target: S24201 antibody; assay: competitive ELISA; coated C1A2-01-BSA (printed C1A1-02-BSA), S24201 125 ng/mL, competitive peptide 8 ng/ml
[8] = molecular target: S24201 antibody; assay: competitive ELISA; coated C1A2-01-BSA (printed C1A1-02-BSA), S24201 125 ng/mL, competitive peptide 0 ng/ml (baseline without competitor)

Binder | Absorbance at wavelength 492 nm (absorbance at 492 nm) [1] | Absorbance at wavelength 492 nm (absorbance at 492 nm) [2] | Absorbance at wavelength 492 nm (absorbance at 492 nm) [3] | Absorbance at wavelength 492 nm (absorbance at 492 nm) [4] | Absorbance at wavelength 492 nm (absorbance at 492 nm) [5] | Absorbance at wavelength 492 nm (absorbance at 492 nm) [6] | Absorbance at wavelength 492 nm (absorbance at 492 nm) [7] | Absorbance at wavelength 492 nm (absorbance at 492 nm) [8]
B1 | 0.142 | 0.306 | 0.074 | 0.735 | 0.541 | 0.712 | 0.668 | 0.752
B2 | 0.521 | 0.652 | 0.313 | 0.7 | 0.693 | 0.706 | 0.681 | 0.702
